B1: Transcription-repair-coupling factor (Escherichia coli (strain K12)), P30958 (parent)
chain: MPEQYRYTLPVKAGEQRLLGELTGAACATLVAEIAERHAGPVVLIAPDMQNALRLHDEISQFTDQMVMNLADWETLPYDSFSPHQDIISSRLSTLYQLPTMQRGVLIVPVNTLMQRVCPHSFLHGHALVMKKGQRLSRDALRTQLDSAGYRHVDQVMEHGEYATRGALLDLFPMGSELPYRLDFFDDEIDSLRVFDVDSQRTLEEVEAINLLPAHEFPTDKAAIELFRSQWRDTFEVKRDPEHIYQQVSKGTLPAGIEYWQPLFFSEPLPPLFSYFPANTLLVNTGDLETSAERFQADTLARFENRGVDPMRPLLPPQSLWLRVDELFSELKNWPRVQLKTEHLPTKAANANLGFQKLPDLAVQAQQKAPLDALRKFLETFDGPVVFSVESEGRREALGELLARIKIAPQRIMRLDEASDRGRYLMIGAAEHGFVDTVRNLALICESDLLGERVARRRQDSRRTINPDTLIRNLAELHIGQPVVHLEHGVGRYAGMTTLEAGGITGEYLMLTYANDAKLYVPVSSLHLISRYAGGAEENAPLHKLGGDAWSRARQKAAEKVRDVAAELLDIYAQRAAKEGFAFKHDREQYQLFCDSFPFETTPDQAQAINAVLSDMCQPLAMDRLVCGDVGFGKTEVAMRAAFLAVDNHKQVAVLVPTTLLAQQHYDNFRDRFANWPVRIEMISRFRSAKEQTQILAEVAEGKIDILIGTHKLLQSDVKFKDLGLLIVDEEHRFGVRHKERIKAMRANVDILTLTATPIPRTLNMAMSGMRDLSIIATPPARRLAVKTFVREYDSMVVREAILREILRGGQVYYLYNDVENIQKAAERLAELVPEARIAIGHGQMRERELERVMNDFHHQRFNVLVCTTIIETGIDIPTANTIIIERADHFGLAQLHQLRGRVGRSHHQAYAWLLTPHPKAMTTDAQKRLEAIASLEDLGAGFALATHDLEIRGAGELLGEEQSGSMETIGFSLYMELLENAVDALKAGREPSLEDLTSQQTEVELRMPSLLPDDFIPDVNTRLSFYKRIASAKTENELEEIKVELIDRFGLLPDPARTLLDIARLRQQAQKLGIRKLEGNEKGGVIEFAEKNHVNPAWLIGLLQKQPQHYRLDGPTRLKFIQDLSERKTRIEWVRQFMRELEENAIA

Variants of: B1
Conditions: with rpob_ecoli rpoB

Row | effect of a mutation on the interaction | Variant
1 | decreasing interaction | L499R

From IntAct's records for PubMed 16469698
